Laboratory results: US12281155 (INSTITUT PASTEUR, dated 2025)

What was measured:
[1] = target: T1, recombinant SARS-CoV-2 Spike RBD domain, Delta variant (SARS-CoV-2); assay: ELISA on coated RBD
T1 construct: also called RBD Delta variant

[2] = target: T2, recombinant SARS-CoV-2 Spike RBD domain, BA.2.86 variant (SARS-CoV-2); assay: ELISA on coated RBD
T2 construct: also called RBD BA.2.86 variant

[3] = target: T3, recombinant SARS-CoV-2 Spike RBD domain, EG.5 variant (SARS-CoV-2); assay: ELISA on coated RBD
T3 construct: also called RBD EG.5.1 variant

[4] = target: T4, recombinant SARS-CoV-2 Spike RBD domain, BA.2 variant (SARS-CoV-2); assay: ELISA on coated RBD
T4 construct: also called RBD BA.2. variant

[5] = target: T5, recombinant SARS-CoV-2 Spike RBD domain, BA.2.75.2 variant (SARS-CoV-2); assay: ELISA on coated RBD
T5 construct: also called RBD BA.2.75.2 variant

[6] = target: T6, recombinant SARS-CoV-2 Spike RBD domain, XBB.1.16 variant (SARS-CoV-2); assay: ELISA on coated RBD
T6 construct: also called RBD XBB.1.16 variant

[7] = target: T7, recombinant SARS-CoV-2 Spike RBD domain, BA.4/5 variant (SARS-CoV-2); assay: ELISA on coated RBD
T7 construct: also called RBD BA.4/5 variant

[8] = target: T8, recombinant SARS-CoV-2 Spike RBD domain, BQ.1.1 variant (SARS-CoV-2); assay: ELISA on coated RBD
T8 construct: also called RBD BQ.1.1. variant

[9] = target: T9, recombinant SARS-CoV-2 Spike RBD domain, XBB.1.5 variant (SARS-CoV-2); assay: ELISA on coated RBD
T9 construct: also called RBD XBB.1.5 variant

[10] = target: T10, recombinant SARS-CoV-2 Spike RBD domain, JN-1 variant (SARS-CoV-2); assay: ELISA on coated RBD
T10 construct: also called RBD JN-1 variant

[11] = target: T1, recombinant SARS-CoV-2 Spike RBD …; assay: competition ELISA, blocking of RBD binding to ACE2 ectodomain
[12] = target: T2, recombinant SARS-CoV-2 Spike RBD …; assay: as above
[13] = target: T3, recombinant SARS-CoV-2 Spike RBD …; assay: as above
[14] = target: T4, recombinant SARS-CoV-2 Spike RBD …; assay: as above
[15] = target: T5, recombinant SARS-CoV-2 Spike RBD …; assay: as above
[16] = target: T6, recombinant SARS-CoV-2 Spike RBD …; assay: as above
[17] = target: T7, recombinant SARS-CoV-2 Spike RBD …; assay: as above
[18] = target: T8, recombinant SARS-CoV-2 Spike RBD …; assay: as above
[19] = target: T9, recombinant SARS-CoV-2 Spike RBD …; assay: as above
[20] = target: T10, recombinant SARS-CoV-2 Spike RBD …; assay: as above
[21] = target: Spike protein of SARS-CoV-2 strain XBB.1.5 (GISAID EPI_ISL_16353849) (SARS-CoV-2); assay: cell-based or functional assay
[22] = target: Spike protein of SARS-CoV-2 strain EG.5.1 (hCoV-19/France/GES-IPP15954/2023) (SARS-CoV-2); assay: cell-based or functional assay
[23] = target: Spike protein of SARS-CoV-2 strain BA.2.86 (hCoV-19/France/IDF-IPP17625/2023) (SARS-CoV-2); assay: cell-based or functional assay
[24] = target: Spike protein of SARS-CoV-2 strain D614G (hCoV-19/France/GE1973/2020) (SARS-CoV-2, UniProt P0DTC2 14-1273); assay: cell-based or functional assay
[25] = target: Spike protein of SARS-CoV-2 strain XBB.1.16 (hCoV-19/France/GES-IPP7712/2023) (SARS-CoV-2); assay: cell-based or functional assay
[26] = target: Spike protein of SARS-CoV-2 strain JN.1 (hCoV-19/France/HDF-IPP21391/2023) (SARS-CoV-2); assay: cell-based or functional assay

B1: SPK002M C3 antibody (antibody, human IgG1, kappa, V domains shown)
VH: EVQLVESGGGLIQPGGSLRLSCAASIITVTSNYMSWVRQAPGKGLEWVSVIYPGGSTFYADSVKGRFTISTDNSKNTLYLQMNSLRAEDTAVYYCARDLVVYGMDVWGQGTTVTVSS
VL: EIVLTQSPGTLSLSPGERATLSCRASQSVSSSYLAWYQQKPGQAPRLLIYGASSRATGIPGRFSGSGSGTDFTLTISRLEPEDFAVYYCQQGVTFGGGTKVEIKR
Binding AUC [1]: 33 | Binding AUC [2]: 38 | Binding AUC [3]: 33 | Binding AUC [4]: 19 | Binding AUC [5]: 29 | Binding AUC [6]: 31 | Binding AUC [7]: 32 | Binding AUC [8]: 31 | Binding AUC [9]: 32 | Binding AUC [10]: 29 | Blocking % [11]: 95% | Blocking % [12]: 90% | Blocking % [13]: 81% | Blocking % [14]: 94% | Blocking % [15]: 94% | Blocking % [16]: 90% | Blocking % [17]: 94% | Blocking % [18]: 94% | Blocking % [19]: 90% | Blocking % [20]: 0% | IC50, S-Fuse neutralization of live virus [21]: 0.13 µg/mL | IC50, S-Fuse neutralization of live virus [22]: 6.08 µg/mL | IC50, S-Fuse neutralization of live virus [23]: 0.33 µg/mL | IC50, S-Fuse neutralization of live virus [24]: 0.08 µg/mL | IC50, S-Fuse neutralization of live virus [25]: 0.3 µg/mL | IC50, S-Fuse neutralization of live virus [26]: 60.1 µg/mL
